Test results from US20240101645A1 (HENRY M JACKSON FOUNDATION FOR THE ADVANCEMENT OF MILITARY …, published 2024).

T1: MERS-CoV spike antigens (bead panel) (MERS-CoV, UniProt K9N5Q8 18-1296)
T1 sequence: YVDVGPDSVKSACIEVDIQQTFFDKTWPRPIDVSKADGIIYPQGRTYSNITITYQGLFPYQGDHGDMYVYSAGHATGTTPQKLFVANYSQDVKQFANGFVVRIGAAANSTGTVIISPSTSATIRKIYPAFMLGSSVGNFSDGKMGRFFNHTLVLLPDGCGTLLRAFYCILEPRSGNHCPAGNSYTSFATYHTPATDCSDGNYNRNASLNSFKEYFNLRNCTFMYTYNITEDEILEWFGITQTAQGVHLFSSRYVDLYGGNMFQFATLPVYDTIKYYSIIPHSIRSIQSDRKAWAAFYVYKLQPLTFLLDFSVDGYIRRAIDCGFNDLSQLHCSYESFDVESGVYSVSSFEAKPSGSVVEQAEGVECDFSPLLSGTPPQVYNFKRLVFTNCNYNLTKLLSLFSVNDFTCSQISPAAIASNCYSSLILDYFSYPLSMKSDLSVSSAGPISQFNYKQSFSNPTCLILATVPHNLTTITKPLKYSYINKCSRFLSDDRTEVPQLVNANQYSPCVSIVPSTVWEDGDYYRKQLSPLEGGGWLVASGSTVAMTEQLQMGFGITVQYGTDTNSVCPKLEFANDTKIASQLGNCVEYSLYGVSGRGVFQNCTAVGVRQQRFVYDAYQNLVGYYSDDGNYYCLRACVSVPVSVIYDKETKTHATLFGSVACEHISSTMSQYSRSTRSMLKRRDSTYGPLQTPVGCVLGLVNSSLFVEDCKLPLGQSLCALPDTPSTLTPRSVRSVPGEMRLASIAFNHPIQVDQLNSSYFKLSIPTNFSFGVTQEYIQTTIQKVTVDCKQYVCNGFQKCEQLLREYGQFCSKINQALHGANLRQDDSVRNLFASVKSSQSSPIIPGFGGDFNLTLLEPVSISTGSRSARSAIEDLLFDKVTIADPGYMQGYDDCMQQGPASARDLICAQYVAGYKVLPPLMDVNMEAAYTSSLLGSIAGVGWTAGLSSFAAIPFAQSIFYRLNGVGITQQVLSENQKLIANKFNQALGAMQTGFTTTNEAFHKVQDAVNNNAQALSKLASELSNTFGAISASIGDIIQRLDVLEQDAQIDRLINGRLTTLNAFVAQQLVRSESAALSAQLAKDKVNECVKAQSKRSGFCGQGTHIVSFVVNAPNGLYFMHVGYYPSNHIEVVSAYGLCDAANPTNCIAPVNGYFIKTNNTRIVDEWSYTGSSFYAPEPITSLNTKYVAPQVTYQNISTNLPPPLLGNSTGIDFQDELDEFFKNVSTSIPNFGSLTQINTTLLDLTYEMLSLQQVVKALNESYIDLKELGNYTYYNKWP


Key:
[1] = molecular target: T2, SARS-CoV-2 NTD (1-290) (SARS-CoV-2, UniProt P0DTC2 14-290); experiment: BLI, 1:1 model
T2 construct: range 1-290

[2] = molecular target: SARS-CoV-2 S on pseudovirions (Wuhan Hu-1 / IL1/2020, last 18 amino acids removed) (SARS-CoV-2, UniProt P0DTC2 14-1273); experiment: cell-based or functional assay
[3] = molecular target: T2, SARS-CoV-2 NTD (1-290); experiment: multiplex bead assay
[4] = molecular target: T1, MERS-CoV spike antigens (bead panel); experiment: multiplex bead assay

Row | Binder | Kd [1] [pM] | IC50, pseudotyped neutralization assay [2] [ng/mL] | binding result [3] | binding result [4]
1 | COV_2025 (antibody, V domains shown, human IgG1) VH: QVHLVQSGAEVKKPGASVKVSCKVSGYTLVELSVHWVRQAPAKGLEWIGGFDPEDGETIYAQKFQGRVTMTEDTSTDTAYMELTNLRSEDTAVYYCVTSQPFVSPNWFDPWGQGTLVTVSS VL: QSALTQPASVSGSPGQSITISCTGTSRDVGAYNYVSWYQQHPGKAPKLMIYEVTTRPSGVSNRFSGSKSGNTASLTISGLQAEDEADYYCSSYTGSRTLVFGTGTKVTVL | < 1 | 9 |  | 
2 | COV_2137 (antibody, V domains shown, human IgG1) VH: EVQLVESGGGLVKPGGSLRLSCAASGFTFSSYTMNWVRQAPGKGLEWVSSISSGSSFIYYADSLRGRFTISRDNAKNSLYLQMNSLRAEDTAVYYCARAPEPQSVIYAYWYFDLWGRGTLVTVSS VL: QSALTQPASVSGSPGQSITFSCTGTSSDVGSYNLVSWYQQYPGKAPKLMIYEVNKRPSGVSNRFSGSKSGNTASLTISGLQAEDEADYYCCSYAGSSTFYVFGTGTKVTVLG |  |  | binds | no binding
3 | COV_2037 (antibody, V domains shown, human IgG1) VH: QVQLVQSGAEVKKPGASVKVSCKVSGYTLTELSMHWVRQAPGKGLEWMGGFDPEDAETIYAQKFQGRVTMTEDTSTDTAYMELSSLRSEDTAVYYCATAGAITGTPTNYSYYYGMDFWGQGTTVTVSS VL: not shown | < 1 |  |  | 
4 | COV_2103 (antibody, V domains shown, human IgG1) VH: EVQLVESGGGVVQPGRSLRLSCGASGFTFSSYGIHWVRQAPGKGLDWVAVIWHDGSQKYYGDSVKGRFTISRDNSKNTLYLQMNRLRAEDTAVYYCARDSGDDYDSSGYPIGNAFDLWGQGTMVTVSS VL: DIQMTQSPSTLSASVGDRVTITCRASQFINSWLAWYQQKPGKAPKLLIYKASSLETGVPSRFSGSGSGTEFTLTISSLQPDDFATYYCQQYNTYSFTFGPGTKVDIK | < 1 |  |  | 
5 | COV_2123 (antibody, V domains shown, human IgG1) VH: EVQLVESGGGVVQPGRSLRLSCAASGFTFSSYAMHWVRQAPGKGLEWVAVLSYDGSNKYNADSVKGRFTISRDNSKNTLYLQMNSLRVEDTAMYYCARDGVSVTMVRGVIGPLCDYWGQGTLVTVSS VL: not shown |  | 4 |  | 
6 | COV_2054 (antibody, V domains shown, human IgG1) VH: EVQLVESGGGVLQPGRSLRLSCAASGFTFNNYALHWVRQAPGKGLEWVAVISYDGSSKYYADSVRGRLTISRDNSRNTLYLQMNSLRPEDTAIYYCARDGDGLWLGESFYFDDWGQGTLVTVSS VL: DIQMTQSPSTLSASVGDRVIITCRASQSISSWLAWYQQKPGKAPKLLIYEASTLQSGVPSRFSGSGSGTEFTLTISSLQPDDSATYYCQQYNSYPVHFSQGTKLEIK | < 1 |  |  | 
7 | COV_2004 (antibody, V domains shown, human IgG1) VH: QVQLVQSGAEVKKPGASVKVSCKASGYTFTGYYMHWVRQAPGQGLEWMGRINPSSGGTNYAQKFQGRVTMTRDTSISTAYMELSSLRSDDTAVYYCATDGDDGENWFDPWGQGTLVIVSS VL: DIQMTQSPSSLSASVGDRVTITCRASQGISSWLAWYQQKPEKAPKSLIYAASSLQSGVPSRFSGSGSGTDFTLTISSLQPEDFATYYCQQYNSYPYTFGQGTKLEIK | < 1 |  |  | no binding
8 | COV_2039 (antibody, V domains shown, human IgG1) VH: QVQLVQSGAEVKKPGASVKVSCKVSGYMLIELSMHWVRQAPGKGLEWMGGFDPEDAETIYAQEFQGRVTMTEDTSTDTAYMELSSLRSEDTAVYYCTTGPAVTNRPADYWGPGTLVTVSS VL: QSVLTQPPSVSGAPGQRVTISCTGSSSNIGASYDVHWYQQLPGTAPKLLIYANSNRPSGVPDRFSGSKSGTSASLAITGLQAEDEADYYCQSYDSSLSYSVVFGGGTKLTVL | < 1 | 6 |  | 
